# Results: publication doi:10.1101/2025.11.06.687086 (2025)
# Target: A/Texas/37/2024 (H5N1) HA (influenza A virus A/Texas/37/2024 (H5N1))
# Assay: BLI
row,Binder,Kd [nM]
1,"HB31 VH R55G germline revertant Fab (Fab, V domains shown) VH: EVQLLESGGGLVQPGGSLRLSCTVSGFTSSNYDMSWVRQAPGKGLEWVSGISGTGGDTYYADSVKGRFTISRDNSKNTLSLQMNSLRADDTAVYFCARDRPVLRYFDWQPYGLDVWGKGTTVTVSS VL: QSALTQPPSASGSPGQSVTISCTGTSSDVGGYNYVSWYQQYPSKAPKLMIYEVSKRPSGVPDRFSGSKSGNTASLTVSGLQAEDEADYYCNSYAGSNLYVFGTGTKVTVL",10.5
2,"HB31 Fab (Fab, V domains shown) VH: EVQLLESGGGLVQPGGSLRLSCTVSGFTSSNYDMSWVRQAPGKGLEWVSGISGTGRDTYYADSVKGRFTISRDNSKNTLSLQMNSLRADDTAVYFCARDRPVLRYFDWQPYGLDVWGKGTTVTVSS VL: QSALTQPPSASGSPGQSVTISCTGTSSDVGGYNYVSWYQQYPSKAPKLMIYEVSKRPSGVPDRFSGSKSGNTASLTVSGLQAEDEADYYCNSYAGSNLYVFGTGTKVTVL",4.5
